Like-named read-outs stand apart in the source and are kept apart here.

Data on 3 molecules can be found in patent publication US6093692A, “Method and compositions for lipidization of hydrophilic molecules” (The University of Southern California, priority 1997, dated 2000).

For data set [1], the system named is C3H 10T1/2(clone 8) cells. As to the kind of experiment: In vitro transformation assay (MCA-induced). The format is cell-based. As to conditions: for Transformed foci / Fraction of dishes containing transformed foci / No. of dishes with transformed foci/No. of dishes: MCA 1 μg/ml 24 hr, conjugates 1.0 μg/ml first three weeks; for Fraction of dishes containing transformed foci / No. of dishes with transformed foci/No. of dishes: scored at six weeks. Here is the method: Transformation assays were carried out using C3H 10T1/2(clone 8) cells according to the published recommendations [Reznikoff, C. A., et al., Cancer. Res., 33:3239-3249 (1973); Reznikoff, C. A., et al., Cancer. Res., 33:3231-3238 (1973)]. Stock cultures of mycoplasma-free cells were maintained by passing 50,000 cells per 75 cm^2 flask every seven days. Using this schedule, the cells were always passed approximately 2 days before reaching confluence. The stock culture was grown in Eagle's basal medium supplemented with 10% FBS, penicillin (100 units), and streptomycin (100 μg) and used for the transformation assays at passages of 9 to 14. The cells were passed by treating the stock cells with trypsin (0.1%) in PBS for 5 min and quenching the trypsin with 5 ml of the medium. This procedure was adapted to minimize spontaneous transformation in the stock cultures and maximize the plating efficiency in the petri dishes. The FBS stock used in the cultures was pre-screened to ensure that the serum was able to support the expression and the growth of the transformed cells.
For the transformation assays, C3H 10T1/2 cells (1000/dish) were seeded into 60 mm petri dishes and allowed to grow in a humidified 5% CO2 atmosphere in Eagle's basal medium, supplemented with 10% FBS, penicillin (100 units), and streptomycin (100 μg), for 24 hr. Subsequently, the cells were initiated by treatment with 25 μl of the 3-methylcholanthrene (MCA) in acetone stock solution ([…]) to a final concentration of 1 μg/ml of MCA (5 μg/5 ml). The cells were allowed to grow in the presence of the carcinogen or solvent for 24 hr, and the medium in each dish was then replaced with fresh medium containing no carcinogen or solvent. The medium in the dishes was replaced twice per week for the first two weeks of the assay, and thereafter once a week for the remainder four weeks of the assay. In the experiments designed to determine the transformation inhibitory activity of the conjugates, the cells were maintained in the medium containing the conjugates (1 μg/ml) for the first three weeks of the assay; thereafter, the cells were maintained in medium containing no added conjugates.
Six weeks after the carcinogen treatment, the cells were inspected under a microscope for adherence to the culture dishes and were washed with PBS and then fixed in 100% methanol. The fixed monolayers were then stained with Giemsa stain. Twenty dishes per group were treated in each experiment. In addition to the test groups, all the transformation assays contained at least three other groups: negative control (not treated with carcinogen or solvent), acetone control (treated with 25 μl of acetone), and positive control [treated with MCA (1 μg/ml) in 25 μl of acetone]. The transformed foci (>3 mm in diameter) in the plates were studied under a microscope and classified according to published guidelines as types I, II, or III [Landolph, J. R., Transfomatin assay of established cell lines: Mechanism and Application (ed. Kakunaga, T., and Yamasaki, H.) IARC Scientific Publications, Lyon, France pp. 185-201 (1985)]. Briefly, type III foci were dense, multilayered, basophilic, areas of cell growth which stained to a deep blue color with Giemsa and had rough crisscrossed edges. Type II foci were also dense, multilayered, areas of cell growth, but were stained to a purple color with Giemsa and had smoother, more defined edges compared to Type III foci. Type I foci were not scored in the assay.
BBI, either as the free protein or in conjugated form to palmitic or oleic acid, was added to the cultures at 1.0 μg/ml for the first three weeks of the transformation assay period starting immediately after the MCA treatment. MCA-treated cells were exposed to 3-methylcholanthrene, dissolved in 25 μl of acetone, at a concentration of 1 μg/ml for 24 hr. Acetone-treated cells were exposed to 25 μl of acetone for 24 hr only. […]

Data set [2] relates to C3H 10T1/2 cells. Put plainly: Plating efficiency. The format is cell-based. Here is the method:
The plating efficiency (PE) of the cells was also studied in conjunction with each of the transformation assays. To determine the PE of the cells in the different treatment groups, cells (200 cells/dish) were seeded into three 60-mm petri dishes per experiment group and treated in the identical manner as the transformation assay cells. The cells in these assays were terminated at 10 days, fixed with 100% methanol, and stained with giemsa; the colonies of 50 cells or more visible under a microscope were then counted. The plating efficiency is defined as the (number of colonies/number of cells seeded)×100%.

The test system of data set [3] is Caco-2 cells. The format is cell-based, Human. As to the method: Human colon carcinoma cells (Caco-2) were detached from 25 cm^2 stock culture flasks using a 10 min incubation at 37° C. with 0.5 ml of a trypsin/EDTA solution (0.5% trypsin, 5.3 mM EDTA). The cells were then suspended in 5 ml of Dulbecco's minimum essential medium, supplemented with 15% fetal bovine serum (FBS), L-glutamine (1%), and essential amino acids (1%), and counted using a coulter counter.
Radioiodination of BBI and BBIssPal was carried out using the chloramine-T method [McConahey, P. C. and Dixon, F. J., Meth. Enzymol., 70:221-247 (1980)]. Confluent, 14-day old cell monolayers were washed once with, and then incubated in, serum-free Dulbecco medium at 37° C. for 30 min. Subsequently, the incubation medium was replaced with serum free medium containing ^125 I-BBI (10 μg/ml), either as native-BBI or as BBIssPal or BBIssOleic, and the monolayers were incubated for a further 60 min at 37° C. The monolayers were then washed three times with ice-cold PBS, and then exposed to trypsin (0.5%, EDTA 5.3 mM) for 10 min at 37° C. The detached cells were transferred to tubes, isolated by centrifugation, washed three times using ice-cold PBS, assayed for accumulated radioactivity using a gamma counter, and finally assayed for cell protein using the published method [Lowry, O. H., et al., J. Biol. Chem., 193:265-275 (1951)].
In some experiments the uptake of reduced ^125 I-BBIssPal into cells was determined. ^125 I-BBIssPal was reduced with DTT (50 mM) at 60° C. for 5 min followed by a further 25 min at 37° C. In control experiments, ^125 I-BBIssPal was exposed in medium to the same temperatures without being exposed to DTT.
The uptake of ^125 I-BBIssPal in the presence of BSA (fatty acid free) was determined as follows. ^125 I-BBIssPal was incubated with medium containing 0.1% BSA for 30 min at 37° C. before being added to the cell monolayers. In some uptake experiments, BSA was first mixed with a 3-fold molar excess of palmitic acid, and then incubated with the conjugates prior to the experiments. In the experiments where the uptake of ^125 I-BBIssPal was determined in medium containing FBS, the conjugates was simply added to the medium containing the required amount of FBS.
The cell monolayers were incubated with ^125 I-labeled conjugates at 10 μg/ml for 60 min at 37° C. The results presented are the average of three monolayers ±SEM. The uptake experiments were carried out in Dulbecco medium, in the presence and absence of added FBS.
The cell uptake of ^125 I-BBI, either as the native protein or as BBIssPal was determined before and after reduction with DTT (50 mM) for 5 min at 60° C. and 25 min at 37° C.
The uptake experiments were carried out in Dulbecco medium, in the presence and absence of added fatty acid-free BSA (BSA) or fatty acid-loaded BSA (BSA/FA). The results of studies of the uptake of ^125 I-BBI, either as the native-BBI or in conjugated form to palmitic or oleic acid, in Caco-2 cells in the presence of serum-free medium are presented in FIG. 1. The results are shown as the average ng of BBI internalized ±SEM, n=3. The uptake of ^125 I-BBIssPal into the cells was approximately 100-fold higher than that of ^125 I-BBI. […] The difference between the uptake of ^125 I-BBIssPal and ^125 I-BBIssOleic were significant.

On the set-up of data set [4]: species or system CF-1 mice. As to conditions: mouse, in vivo, iv, 3 mg/kg. As to the method:
Female CF-1 mice, […], weighing 20-25 g each, with free access to food and water prior to the experiments, were used for the animal experiments. ^125 I-BBI (3 mg/kg), as native-BBI or as BBIssPal or BBIssOleic conjugate, was administered to the animals via the tail vein. At 0.5, 3, and 24 hr post-injection, 3 animals from each experiment group were sacrificed and their blood (200 μl), the kidneys, the lungs, and the liver were removed, rinsed in ice-cold PBS, and assayed for accumulated radioactivity. The weights of the organs were recorded and used to adjust the concentration of the conjugates in the organs.

For the molecule `Cc1ccc2cc3c(ccc4ccccc43)c3c2c1CC3` [MCA, 3-methylcholanthrene, reference compound], in data set [1], the “Transformed foci” value is 6 out of the 19 dishes scored contained type III foci, the “Fraction of dishes containing transformed foci” value (shortened to “Fraction”) came out at 0.32 and the “No. of dishes with transformed foci/No. of dishes” value (from here on “No. of dishes”) is listed as 6/19. For the same molecule, the “Plating Efficiency” value in data set [2] (200 cells/dish, 10 days, treated as in the transformation assay) turned out to be 21 ± 3.0%.

B1: BBI: a hydrophilic protein which has low uptake into cells and is not orally bioavailable (protein, UniProt P01055 40-110, looked up)
Bowman-Birk type proteinase …: DDESSKPCCDQCACTKSNPPQCRCSDMRLNSCHSACKSCICALSYPAQCFCVDITDFCYEPCKPSEDDKEN
For B1, in data set [1], the “Transformed foci” value was “no transformed foci”, the “Fraction” value came to 0 and the “No. of dishes” value is reported as 0/20. Further, the “Plating Efficiency” value in data set [2] is recorded as 24 ± 2.0%. Besides, in data set [3], the “Effect of fatty acid-loaded BSA on uptake” value is on record as “not affected”, the “Reduction of uptake after reduction with DTT” value was “did not cause a reduction in the uptake” and the “Reduction of uptake by defatted-BSA” value is reported as “not affected”. In data set [4], the “Blood levels and removal from circulation” value is recorded as “rapidly excreted from the body without attaining high blood levels”; the “Kidney accumulation” value was “rapidly accumulated in the kidneys”.

B2: BBIssOleic: the oleic acid conjugated BBI (conjugate, UniProt P01055 40-110, looked up)
Bowman-Birk type proteinase …: B1 Bowman-Birk type proteinase …
modifications: oleyl disulfide conjugate; 125I
notes: the oleic acid conjugated BBI
In the case of B2, the “Retention of anti-transformation activity of BBI” value in data set [1] (1.0 μg/ml) was “retained the original biological activity of BBI”. For the same molecule, in data set [1], the “Transformed foci” value was “no transformed foci”, the “Fraction” value came to 0 and the “No. of dishes” value is reported as 0/20. Besides, in data set [2], the “Plating Efficiency” value turned out to be 24 ± 3.5%. In addition, in data set [3], the “Uptake, fold higher than that of BBI” value is recorded as “about 108 fold”. In addition, in data set [4], the “Blood levels and removal from circulation” value is “higher blood levels than BBI”; the “Blood levels, fold higher than BBI” value is given as “about 4 fold”; the “Kidney clearance, fold lower than native-BBI” value is on record as “about 4 fold”; the “Liver accumulation, fold higher than BBI” value is given as “about 4 fold”. In data set [4], the “Lung accumulation/levels, fold higher than BBI” value is on record as “about 2 fold” and the “Retention in the liver” value was “significant levels of the conjugate present in the liver even at 24 hr post-injection”.
